PMC11381518, “Human cell surface-AAV interactomes identify LRP6 as blood-brain barrier transcytosis receptor and immune cytokine IL3 as AAV9 binder” (Nature Communications, 2024)

T1: mouse LRP6 (AA 20-1366) with a 6xHis tag (mouse, UniProt O88572 20-1366)
T1 construct: mouse LRP6 extracellular domain, AA 20-1366; also called full length extracellular domain of mouse LRP6; source: bought: Bio-Techne
T1 sequence (looked up): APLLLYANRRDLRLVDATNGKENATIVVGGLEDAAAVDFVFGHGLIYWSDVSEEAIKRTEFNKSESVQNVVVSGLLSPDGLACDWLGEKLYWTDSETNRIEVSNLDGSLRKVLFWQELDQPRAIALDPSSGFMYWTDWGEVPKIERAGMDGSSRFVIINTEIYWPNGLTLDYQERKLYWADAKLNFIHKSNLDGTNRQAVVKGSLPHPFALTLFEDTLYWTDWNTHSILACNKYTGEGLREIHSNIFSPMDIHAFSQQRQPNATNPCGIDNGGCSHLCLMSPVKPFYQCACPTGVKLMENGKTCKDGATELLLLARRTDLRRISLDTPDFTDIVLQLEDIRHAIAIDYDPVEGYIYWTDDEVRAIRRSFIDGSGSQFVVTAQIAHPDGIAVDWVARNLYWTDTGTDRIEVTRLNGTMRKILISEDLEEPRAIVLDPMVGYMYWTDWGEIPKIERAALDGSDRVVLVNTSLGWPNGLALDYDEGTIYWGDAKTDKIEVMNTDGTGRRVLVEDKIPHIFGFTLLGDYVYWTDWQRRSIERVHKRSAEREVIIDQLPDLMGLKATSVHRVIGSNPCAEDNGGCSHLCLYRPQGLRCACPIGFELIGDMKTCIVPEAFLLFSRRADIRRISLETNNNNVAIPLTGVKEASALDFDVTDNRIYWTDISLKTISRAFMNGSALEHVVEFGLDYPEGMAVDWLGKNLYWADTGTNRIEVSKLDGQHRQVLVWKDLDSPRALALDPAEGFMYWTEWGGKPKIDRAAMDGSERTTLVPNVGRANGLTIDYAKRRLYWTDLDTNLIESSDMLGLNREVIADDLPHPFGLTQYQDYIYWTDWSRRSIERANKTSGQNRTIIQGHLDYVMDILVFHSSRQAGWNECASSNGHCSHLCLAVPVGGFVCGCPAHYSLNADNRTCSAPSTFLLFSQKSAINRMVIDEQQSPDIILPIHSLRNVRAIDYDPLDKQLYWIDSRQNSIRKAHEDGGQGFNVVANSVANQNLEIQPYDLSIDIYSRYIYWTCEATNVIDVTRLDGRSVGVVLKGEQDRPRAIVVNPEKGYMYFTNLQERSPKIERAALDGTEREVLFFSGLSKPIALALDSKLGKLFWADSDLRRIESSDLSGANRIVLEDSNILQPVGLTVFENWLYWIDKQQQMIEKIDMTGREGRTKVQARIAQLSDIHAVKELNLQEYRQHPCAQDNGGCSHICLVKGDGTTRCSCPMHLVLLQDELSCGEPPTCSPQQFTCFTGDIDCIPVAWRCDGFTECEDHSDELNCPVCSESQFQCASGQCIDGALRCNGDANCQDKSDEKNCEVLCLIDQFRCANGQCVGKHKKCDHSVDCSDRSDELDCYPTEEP

T2: human LRP6 (AA 20-1368) tagged with human IgG1 Fc (human, UniProt O75581 20-1368)
T2 construct: human LRP6, AA 20-1368; the methods call it full-length, the results the extracellular domain; also called human LRP6-Fc; human LRP6 extracellular domain; source: bought: Bio-Techne
T2 sequence (looked up): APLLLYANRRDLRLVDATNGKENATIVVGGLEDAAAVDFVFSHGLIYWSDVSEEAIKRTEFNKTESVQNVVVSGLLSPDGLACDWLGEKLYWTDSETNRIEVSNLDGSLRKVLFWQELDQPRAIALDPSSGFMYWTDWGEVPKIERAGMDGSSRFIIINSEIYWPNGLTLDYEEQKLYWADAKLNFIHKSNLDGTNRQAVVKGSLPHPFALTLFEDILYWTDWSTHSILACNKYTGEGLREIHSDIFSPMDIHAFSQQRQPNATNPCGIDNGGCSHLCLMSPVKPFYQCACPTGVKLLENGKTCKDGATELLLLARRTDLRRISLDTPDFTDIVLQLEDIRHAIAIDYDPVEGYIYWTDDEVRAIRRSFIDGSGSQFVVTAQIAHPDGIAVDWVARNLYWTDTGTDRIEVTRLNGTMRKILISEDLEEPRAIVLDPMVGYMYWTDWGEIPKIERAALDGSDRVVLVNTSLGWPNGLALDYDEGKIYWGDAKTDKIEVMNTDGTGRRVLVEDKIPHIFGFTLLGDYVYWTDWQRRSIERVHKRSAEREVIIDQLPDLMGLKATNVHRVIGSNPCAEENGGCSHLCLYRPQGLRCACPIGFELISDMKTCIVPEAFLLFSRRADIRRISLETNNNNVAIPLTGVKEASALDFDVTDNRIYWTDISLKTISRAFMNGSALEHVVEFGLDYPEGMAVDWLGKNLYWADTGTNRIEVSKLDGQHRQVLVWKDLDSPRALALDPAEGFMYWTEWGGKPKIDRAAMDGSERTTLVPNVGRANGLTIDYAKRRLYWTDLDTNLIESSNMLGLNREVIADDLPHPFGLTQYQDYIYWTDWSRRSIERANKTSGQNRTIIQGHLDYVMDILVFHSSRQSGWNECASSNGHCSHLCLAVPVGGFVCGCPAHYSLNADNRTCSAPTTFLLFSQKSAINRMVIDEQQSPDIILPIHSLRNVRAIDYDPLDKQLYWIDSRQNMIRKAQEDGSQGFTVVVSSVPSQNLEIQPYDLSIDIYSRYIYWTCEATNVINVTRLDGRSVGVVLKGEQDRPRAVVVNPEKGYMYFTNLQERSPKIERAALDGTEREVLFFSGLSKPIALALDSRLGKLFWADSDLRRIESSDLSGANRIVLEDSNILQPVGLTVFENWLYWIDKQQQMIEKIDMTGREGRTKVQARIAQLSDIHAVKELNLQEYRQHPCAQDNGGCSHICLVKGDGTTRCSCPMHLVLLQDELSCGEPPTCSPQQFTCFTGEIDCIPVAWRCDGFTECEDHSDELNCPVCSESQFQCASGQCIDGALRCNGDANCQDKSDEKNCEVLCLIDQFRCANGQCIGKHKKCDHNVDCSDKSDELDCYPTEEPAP

B1: AAV9-X1.1 capsid (complex, adeno-associated virus 9, UniProt Q6JC40 1-736, looked up)
chain: MAADGYLPDWLEDNLSEGIREWWALKPGAPQPKANQQHQDNARGLVLPGYKYLGPGNGLDKGEPVNAADAAALEHDKAYDQQLKAGDNPYLKYNHADAEFQERLKEDTSFGGNLGRAVFQAKKRLLEPLGLVEEAAKTAPGKKRPVEQSPQEPDSSAGIGKSGAQPAKKRLNFGQTGDTESVPDPQPIGEPPAAPSGVGSLTMASGGGAPVADNNEGADGVGSSSGNWHCDSQWLGDRVITTSTRTWALPTYNNHLYKQISNSTSGGSSNDNAYFGYSTPWGYFDFNRFHCHFSPRDWQRLINNNWGFRPKRLNFKLFNIQVKEVTDNNGVKTIANNLTSTVQVFTDSDYQLPYVLGSAHEGCLPPFPADVFMIPQYGYLTLNDGSQAVGRSSFYCLEYFPSQMLRTGNNFQFSYEFENVPFHSSYAHSQSLDRLMNPLIDQYLYYLSKTIDGAATKNQTLKFSVAGPSNMAVQGRNYIPGPSYRQQRVSTTVTQNNNSEFAWPGASSWALNGRNSLMNPGPAMASHKEGEDRFFPLSGSLIFGKQGTGRDNVDADKVMITNEEEIKTTNPVATESYGQVATNHQSAQGNNTRSVAQAQTGWVQNQGILPGMVWQDRDVYLQGPIWAKIPHTDGNFHPSPLMGGFGMKHPPPQILIKNTPVPADPPTAFNKDKLNSFITQYSTGQVSVEIEWELQKENSKRWNPEIQYTSNYYKSNNVEFAVNTEGVYSEPRPIGTRYLTRNL
notes: AAV9 capsid protein VP1 with changes in VR-IV and VR-VIII; numbers count on VP1; also called AAV-X1.1; source: HEK293 cells, triple transfected, purified (iodixanol gradient); copies: 60
B2: AAV.CAP-Mac capsid (complex, adeno-associated virus 9, UniProt Q6JC40 1-736, looked up)
chain: MAADGYLPDWLEDNLSEGIREWWALKPGAPQPKANQQHQDNARGLVLPGYKYLGPGNGLDKGEPVNAADAAALEHDKAYDQQLKAGDNPYLKYNHADAEFQERLKEDTSFGGNLGRAVFQAKKRLLEPLGLVEEAAKTAPGKKRPVEQSPQEPDSSAGIGKSGAQPAKKRLNFGQTGDTESVPDPQPIGEPPAAPSGVGSLTMASGGGAPVADNNEGADGVGSSSGNWHCDSQWLGDRVITTSTRTWALPTYNNHLYKQISNSTSGGSSNDNAYFGYSTPWGYFDFNRFHCHFSPRDWQRLINNNWGFRPKRLNFKLFNIQVKEVTDNNGVKTIANNLTSTVQVFTDSDYQLPYVLGSAHEGCLPPFPADVFMIPQYGYLTLNDGSQAVGRSSFYCLEYFPSQMLRTGNNFQFSYEFENVPFHSSYAHSQSLDRLMNPLIDQYLYYLSKTINGSGQNQQTLKFSVAGPSNMAVQGRNYIPGPSYRQQRVSTTVTQNNNSEFAWPGASSWALNGRNSLMNPGPAMASHKEGEDRFFPLSGSLIFGKQGTGRDNVDADKVMITNEEEIKTTNPVATESYGQVATNHQSAQLNTTKPIAQAQTGWVQNQGILPGMVWQDRDVYLQGPIWAKIPHTDGNFHPSPLMGGFGMKHPPPQILIKNTPVPADPPTAFNKDKLNSFITQYSTGQVSVEIEWELQKENSKRWNPEIQYTSNYYKSNNVEFAVNTEGVYSEPRPIGTRYLTRNL
notes: AAV9 capsid protein VP1 with an insertion in VR-VIII; numbers count on VP1; source: HEK293 cells, triple transfected, purified (iodixanol gradient); copies: 60

Columns and labels:
Conditions in all cases: both partners purified
[1] = biological target: T1, mouse LRP6 (AA 20-1366) with a 6xHis tag; experiment: pull-down; prey AAVs mixed with His-tagged bait protein and Ni-NTA resin in DPBS with 20 mM imidazole, 1 h at 4 °C; eluate analysed by Western blot with anti-VP1/VP2/VP3 and anti-6xHis
[2] = biological target: T2, human LRP6 (AA 20-1368) tagged with …; experiment: SPR; Sierra SPR-32, protein A sensor chip; human LRP6-Fc captured at 1200-1500 RU in HBS-EP+ (Fig. 4b); AAV injected at 10 µL per min for 240 s, 600 s dissociation; AAV from 2.4 × 10^12 v.g. per mL in twofold dilutions; apparent affinity, avid format
AAV9-X1.1 capsid = biological target: B1; experiment: SPR; Sierra SPR-32, protein A sensor chip; Fc-fusion protein captured at 600-800 RU in HBS-EP+; AAV injected at 10 µL per min for 240 s, 600 s dissociation; AAV from 2.4 × 10^12 v.g. per mL in twofold dilutions; avid format
AAV.CAP-Mac capsid = biological target: B2; experiment: as above
AAV-BI30 capsid = biological target: T3, AAV-BI30 capsid (adeno-associated virus 9, UniProt Q6JC40 1-736, VR VIII AA587-590 AQ - - - - - - - AQ to AQNNSTRGGAQ); experiment: as above
T3 construct: AAV9 capsid protein VP1 with an insertion in VR-VIII; numbers count on VP1; source: HEK293 cells, triple transfected, purified (iodixanol gradient); copies: 60

Binder	binding result [1]	binding result [2]	binding result (AAV9-X1.1 capsid)	binding result (AAV.CAP-Mac capsid)	binding result (AAV-BI30 capsid)
B1	binds	binds	–	–	–
B2	binds	binds	–	–	–
mouse LRP6-E1E2 (N-half of the extracellular domain, AA 20-628) tagged with mouse IgG2a Fc (Fc fusion, UniProt O88572 20-628, looked up, mouse LRP6, YWTD domains 1 and 2 (E1E2), AA 20-628; source: bought: Bio-Techne) APLLLYANRRDLRLVDATNGKENATIVVGGLEDAAAVDFVFGHGLIYWSDVSEEAIKRTEFNKSESVQNVVVSGLLSPDGLACDWLGEKLYWTDSETNRIEVSNLDGSLRKVLFWQELDQPRAIALDPSSGFMYWTDWGEVPKIERAGMDGSSRFVIINTEIYWPNGLTLDYQERKLYWADAKLNFIHKSNLDGTNRQAVVKGSLPHPFALTLFEDTLYWTDWNTHSILACNKYTGEGLREIHSNIFSPMDIHAFSQQRQPNATNPCGIDNGGCSHLCLMSPVKPFYQCACPTGVKLMENGKTCKDGATELLLLARRTDLRRISLDTPDFTDIVLQLEDIRHAIAIDYDPVEGYIYWTDDEVRAIRRSFIDGSGSQFVVTAQIAHPDGIAVDWVARNLYWTDTGTDRIEVTRLNGTMRKILISEDLEEPRAIVLDPMVGYMYWTDWGEIPKIERAALDGSDRVVLVNTSLGWPNGLALDYDEGTIYWGDAKTDKIEVMNTDGTGRRVLVEDKIPHIFGFTLLGDYVYWTDWQRRSIERVHKRSAEREVIIDQLPDLMGLKATSVHRVIGSNPCAEDNGGCSHLCLYRPQGLRCACPIGFELIGDMKTCI	–	–	binds	binds	binds
